According to PMC2064341 (The Journal of Cell Biology, 2006):

Target: T1, 6-His-tagged RLIP76ΔRBD (human, UniProt Q15311 1-392)
T1 sequence: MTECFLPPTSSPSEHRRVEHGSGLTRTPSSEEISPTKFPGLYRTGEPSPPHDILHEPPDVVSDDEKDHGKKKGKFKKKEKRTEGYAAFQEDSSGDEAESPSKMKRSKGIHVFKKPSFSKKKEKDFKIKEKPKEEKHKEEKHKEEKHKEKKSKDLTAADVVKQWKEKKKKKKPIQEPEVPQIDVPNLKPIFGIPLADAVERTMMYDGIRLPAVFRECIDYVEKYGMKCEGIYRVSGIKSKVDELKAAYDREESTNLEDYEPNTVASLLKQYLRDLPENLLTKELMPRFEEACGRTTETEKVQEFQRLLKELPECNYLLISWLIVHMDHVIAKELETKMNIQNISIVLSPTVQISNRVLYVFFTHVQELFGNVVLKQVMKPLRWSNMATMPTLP
Assay: pull-down

B1: GST–R-Ras(wt) (natural protein, human, UniProt P10301 1-218, looked up)
chain: MSSGAASGTGRGRPRGGGPGPGDPPPSETHKLVVVGGGGVGKSALTIQFIQSYFVSDYDPTIEDSYTKICSVDGIPARLDILDTAGQEEFGAMREQYMRAGHGFLLVFAINDRQSFNEVGKLFTQILRVKDRDDFPVVLVGNKADLESQRQVPRSEASAFGASHHVAYFEASAKLRLNVDEAFEQLVRAVRKYQEQELPPSPPSAPRKKGGGCPCVLL
B1: binds.
